Experimental data from patent US10577428B2, “Anti-factor XI monoclonal antibodies and methods of use thereof” (Oregon Health & Science University, priority 2007, dated 2020).
“Also recorded” adds a separate entry of the source. Like-named read-outs stand apart in the source and are kept apart here.

Assays:
FXI [1] = test: FXI clotting assay in vitro (FXI deficient human plasma, NBP dilutions as standards); assay type: biochemical, baboon; settings: serial dilutions of NBP as standards
Prekallikrein (PK) = Prekallikrein (PK) (Homo sapiens, UniProt P03952); test: Western blot binding to prekallikrein
Sequence of Prekallikrein (PK) (P03952 20-638): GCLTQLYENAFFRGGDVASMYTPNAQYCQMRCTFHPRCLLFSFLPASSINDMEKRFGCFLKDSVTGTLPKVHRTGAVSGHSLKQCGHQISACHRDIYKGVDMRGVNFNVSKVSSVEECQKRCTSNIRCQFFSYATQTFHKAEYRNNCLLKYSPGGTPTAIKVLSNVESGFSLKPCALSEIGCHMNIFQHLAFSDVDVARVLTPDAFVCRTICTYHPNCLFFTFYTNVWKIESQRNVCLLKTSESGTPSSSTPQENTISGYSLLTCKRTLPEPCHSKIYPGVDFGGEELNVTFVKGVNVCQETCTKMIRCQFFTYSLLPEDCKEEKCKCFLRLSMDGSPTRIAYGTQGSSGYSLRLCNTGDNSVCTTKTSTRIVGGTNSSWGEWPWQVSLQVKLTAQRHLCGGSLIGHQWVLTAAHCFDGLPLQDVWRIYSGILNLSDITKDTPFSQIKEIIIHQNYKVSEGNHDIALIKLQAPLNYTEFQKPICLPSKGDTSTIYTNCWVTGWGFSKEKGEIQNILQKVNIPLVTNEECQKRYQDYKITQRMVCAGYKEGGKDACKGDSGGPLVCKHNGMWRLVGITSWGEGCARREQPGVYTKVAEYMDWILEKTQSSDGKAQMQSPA
Experimental: (§1) Comparative binding studies for monoclonal antibody 1A6 were conducted using FXI, Prekallikrein (PK), and FXI/PK chimeras involving either the substitution FXI domains with PK domains (FIG. 9) or the substitution of PK domains with FXI domains (FIG. 10).

Human FXI in plasma = molecular target: T1, Human FXI in plasma (Homo sapiens, UniProt P03951); test: Western blot of human plasma; assay type: binding
T1 construct: antibody 1A6 recognizes Factor XI in human and non-human primate plasma; from tissue; host or cells: normal human plasma (A4); whole human blood or reconstituted FXII-deficient human blood (A9)
Excerpt: (§2) Results from a Western Blot study corroborating that anti-factor XI monoclonal antibody 1A6 recognizes Factor XI in human and non-human primate plasma is shown in FIG. 7A.

[2] = test system: recombinant FXI proteins with mutations within the A3 domain; test: Western blot binding to recombinant FXI A3 domain alanine mutants; parameters: species or system human; settings: 2 or 3 adjacent amino acids replaced with Alanine (FIG. 11)
Experimental: Binding studies were also conducted using recombinant FXI proteins involving mutations of different amino acids within the A3 domain to determine amino acids important for the binding of monoclonal antibody 1A6. An example of the binding of monoclonal antibody 1A6 to a panel of 25 such recombinant proteins in which 2 or 3 adjacent amino acids within the A3 domain were replaced with Alanine is shown in FIG. 11. […] Based on such studies, amino acids important for the binding of monoclonal antibody 1A6 to the FXI A3 domain were determined, and are shown in FIG. 12 (amino acids 183 to 197, 203 to 204, 234 to 236, 241 to 243, 252 to 254, and 258 to 260 of SEQ ID NO:1).

baboon FXI in plasma = test: Western blot of baboon / non-human primate plasma; assay type: binding
Excerpt: as §2

FXI [3] = test: Pilot experiment: FXI:Ag, FXI inhibitor and FXI procoagulant activity after aXIMab in a single baboon; assay type: in vivo
Experimental: The maximum achievable prolongation of the aPTT was about 2.5 fold. FXI:Ag was measured by ELISA using goat anti-human FXI polyclonal capture and detection (horseradish peroxidase conjugated [HRP]) antibodies (Affinity Biologicals, Hamilton, Ontario), which also recognized baboon FXI and its complex with aXIMab. A standard curve was constructed with serial dilutions of NBP, and FXI concentrations were determined in percentage of NBP. Western blots for FXI were performed by size fractionation of 1 μl samples of plasma under non-reducing conditions on 7.5% polyacrylamide-SDS gels, followed by transfer to PVDF membranes. Detection was with a goat-anti-human FXI polyclonal antibody conjugated to HRP and chemiluminescence.

[4] = test system: third apple (A3) domain of the FXI heavy chain; test: Immunoblotting of FXI and recombinant FXI/prekallikrein chimeras; assay type: binding, human; settings: for FXI domain recognized: immunoblotting of recombinant FXI/prekallikrein chimeras
Experimental: as §1

baboons (Papio anubis) = test: Local and systemic TAT, βTG and D-dimer during thrombus formation (4 mm grafts); assay type: in vivo, baboon (Papio anubis)
Experimental: A novel local sampling method was used to assess the local production of thrombogenic mediators by sampling blood that superfused propagating experimental thrombi. […] All blood samples were collected into 1/10th volume 3.8% citrate anticoagulant. Systemic samples (1 ml each) were collected before initiation of thrombosis as well as 30 and 60 min into each study. A total of 6 local blood samples were drawn from the peripheral blood IBL at a rate of 100 μl/min over 10 min intervals out of a 0.64 mm port which was located 10 mm distal to the growing thrombus (FIG. 1A). […] Infusion and sampling were regulated by syringe pumps (Harvard Apparatus). Local sampling was performed only with the 4 mm i.d. devices in this study.
Blood cell counts were determined using a micro-60 automated cell counter (Horiba-ABX Diagnostics). Blood samples were divided into two aliquots and processed according to specific test requirements. All samples were placed on ice for 10 min, centrifuged at 4° C. for 10 min at 12,900 g, and the plasmas were stored at −80° C. For β-thromboglobulin (βTG) determinations, the samples were supplemented with 4 μg/ml prostaglandin E1 (PGE1), 4.3 mg/ml acetylsalicylic acid (ASA), and 50 μg/ml PPACK. Cross-reacting ELISA assays were used to determine D-dimer levels (IMUCLONE® D-Dimer, American Diagnostica; LOD: 35 ng/mL), the platelet activation marker βTG (Asserachrom®, Diagnostica Stago; LOD: 5 IU/mL), and thrombin-antithrombin complexes (TAT, Enzygnost-TAT, Dade-Behring; LOD: 2 ng/mL). All ELISA test kits utilized for these studies have previously shown sensitivity to baboon markers.

B1: aXIMab: neutralizing murine IgG/kappa anti-human FXI monoclonal antibody from hybridoma 1A6; binds A3 domain; VH SEQ ID NO:3, VL SEQ ID NO:5 (antibody, listed as Mus musculus, V domains shown)
VH: QVTLKESGPGILKPSQTLSLTCSFSGFSLSTSGMGVGWIRQPSGKGLEWLAHIWWDDDKYYNPSLKSQLTISKDTSRNQVFLKITSVDAADTATYYCARKRSSVVAHYYAMDYWGQGTSVTVSS
VL: DIVLTQSPASLAVSLGQRATISCKASQSVDYDGDSYLNWYQQKPGQPPKLLIYAASNLESGIPARFSGSGSGTDFTLNIHPVEEEDAATYYCQQSNGDPWTFGGGTKLEIK
- IC99 (FXI [1]): 10 nM
- binding to PK (Prekallikrein (PK)): did not bind
- recognition of FXI on Western blot (Human FXI in plasma): single band at 160 kDa
- recognition of FXI on Western blot (Human FXI in plasma; listed as 1A6): recognizes
- binding to FXI A3 domain mutants [2]: did not bind to some mutants
- recognition of FXI on Western blot (baboon FXI in plasma): single band at 160 kDa
- recognition of FXI on Western blot (baboon FXI in plasma; listed as 1A6): recognizes
- FXI:Ag levels (FXI [3]; 1 h after 2 mg/kg, single baboon, baseline 110%): 40 % of NBP levels
- FXI activity (FXI [3]; 1 h after 2 mg/kg, single baboon, baseline 125%): < 1%
- Maximum circulating FXI inhibitor levels (Bethesda assay) (FXI [3]; 1 h post infusion, 2 mg/kg, single baboon): 72 Bethesda units [BU]
- circulating FXI inhibitor levels (Bethesda assay) (FXI [3]; by day 15, 2 mg/kg, single baboon): < 0.6 BU
- FXI:Ag levels (FXI [3]; day 8 post-infusion, 2 mg/kg, single baboon): 300 % of control
- FXI activity (FXI [3]; day 27, 2 mg/kg, single baboon): 136%
- Plasma FXI antigen (FXI [3]; day 27, 2 mg/kg, single baboon): 130%
- total FXI:Ag levels (FXI [3]; following the disappearance of FXI activity): temporarily increased several-fold above baseline
- FXI activity inhibited (FXI [3]; for 10 days after administration, 2 mg/kg, single baboon): > 99%
- free FXI:Ag (FXI [3]; for over a week following injection): < 1%
- maximum achievable prolongation of the aPTT (FXI [3]; in vivo): about 2.5 fold
- Plasma FXI antigen (FXI [3]; through day 15, 2 mg/kg, single baboon): above 200 % of control
- binding to FXI/PK chimeras ([4]; FXI domains substituted with PK domains (FIG. 9)): bound all FXI/PK chimeras except the chimera in which the A3 domain of FXI was substituted with a PK domain
- binding to FXI/PK chimeras ([4]; PK domains substituted with FXI domains (FIG. 10), listed as 1A6): bound only to chimeras in which the A3 domain of FXI had been inserted; also recorded: bind only to chimeras in which the A3 domain of FXI had been inserted
- FXI domain recognized [4]: specifically recognized the third apple (A3) domain
- FXI domain recognized ([4]; listed as 1A6): bound to an epitope on the FXI A3 domain
- βTG release (platelet activation at thrombus surface) reduced (baboons (Papio anubis); at 30 min, samples taken distal to thrombi): 86%
- TAT levels by local sampling reduced (baboons (Papio anubis); at 40 min): up to 98%
- Systemic βTG levels reduced (baboons (Papio anubis); at 60 min): 42%
- systemic TAT levels reduced versus untreated controls (baboons (Papio anubis); at 60 min): 81%
- systemic TAT levels (baboons (Papio anubis); at 60 min, n=6, control 22.1±2.5): 4.3 ± 0.5 µg/L
- Systemic βTG levels (baboons (Papio anubis); at 60 min, n=6, vehicle 39.5±5.5): 23.0±2.1 IU/ml
- increase in local TAT levels (baboons (Papio anubis); pre-treatment with aXIMab (FIG. 4A)): prevented the increase in local TAT levels
